# From US20130089516
# Residue numbers refer to the chain shown, from its start.
# Legend:
# [1] = target: T1, mIL-2/MMP2cs/4x linker/mIL-2Rα + 6His (UniProt P04351)
# T1 sequence: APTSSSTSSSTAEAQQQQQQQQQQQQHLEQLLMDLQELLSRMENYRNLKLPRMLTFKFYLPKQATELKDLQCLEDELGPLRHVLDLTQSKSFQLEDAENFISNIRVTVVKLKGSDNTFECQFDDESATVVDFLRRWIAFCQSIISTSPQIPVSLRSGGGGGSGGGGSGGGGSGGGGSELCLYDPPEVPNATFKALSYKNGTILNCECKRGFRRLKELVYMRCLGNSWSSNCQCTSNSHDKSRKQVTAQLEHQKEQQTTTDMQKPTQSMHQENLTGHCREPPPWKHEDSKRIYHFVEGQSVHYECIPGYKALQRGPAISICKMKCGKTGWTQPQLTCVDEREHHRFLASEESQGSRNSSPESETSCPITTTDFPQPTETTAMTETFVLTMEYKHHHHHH
# [2] = target: T2, mIL-2/MMP3-2cs/4x linker/mIL-2Rα + 6His (UniProt P04351)
# T2 sequence: T1 sequence with I150V, V152L, R155Y
# [3] = target: T3, mIL-2/MMP1cs/4x linker/mIL-2Rα + 6His (UniProt P04351)
# T3 sequence: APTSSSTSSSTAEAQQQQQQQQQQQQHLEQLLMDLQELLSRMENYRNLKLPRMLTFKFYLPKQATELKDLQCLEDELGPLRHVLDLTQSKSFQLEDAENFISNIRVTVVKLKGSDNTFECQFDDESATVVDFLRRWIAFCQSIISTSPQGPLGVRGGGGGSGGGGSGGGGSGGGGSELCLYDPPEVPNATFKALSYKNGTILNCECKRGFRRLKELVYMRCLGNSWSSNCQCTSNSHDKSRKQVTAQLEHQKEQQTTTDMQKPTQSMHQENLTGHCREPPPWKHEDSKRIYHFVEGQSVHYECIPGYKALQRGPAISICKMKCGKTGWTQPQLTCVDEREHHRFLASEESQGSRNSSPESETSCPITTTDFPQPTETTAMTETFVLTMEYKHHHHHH
# [4] = target: T4, mIL-2/MMP4-1cs/4x linker/mIL-2Rα + 6His (UniProt P04351)
# T4 sequence: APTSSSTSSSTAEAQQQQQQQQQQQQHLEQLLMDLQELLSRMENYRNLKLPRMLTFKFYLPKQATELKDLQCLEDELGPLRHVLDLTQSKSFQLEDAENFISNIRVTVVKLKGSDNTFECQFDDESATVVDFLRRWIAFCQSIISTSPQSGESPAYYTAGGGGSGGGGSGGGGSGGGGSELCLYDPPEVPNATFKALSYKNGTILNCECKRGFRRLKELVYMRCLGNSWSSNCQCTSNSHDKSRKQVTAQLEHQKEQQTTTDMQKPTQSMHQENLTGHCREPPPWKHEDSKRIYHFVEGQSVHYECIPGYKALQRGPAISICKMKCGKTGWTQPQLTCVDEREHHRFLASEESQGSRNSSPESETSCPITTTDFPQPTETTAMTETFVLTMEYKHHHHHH
# [5] = target: mouse IL-2/PSAcs/Mip-1α fusion protein (UniProt P04351)
# [6] = target: hIL-2/PSAcs/2x linker/scFv + 6His (UniProt P60568)
# Sequence of hIL-2/PSAcs/2x linker/scFv + 6His (P60568 whole entry, looked up): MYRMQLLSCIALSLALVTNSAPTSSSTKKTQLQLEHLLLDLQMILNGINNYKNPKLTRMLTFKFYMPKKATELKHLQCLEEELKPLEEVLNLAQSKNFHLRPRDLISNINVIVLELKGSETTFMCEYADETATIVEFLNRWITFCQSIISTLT
# [7] = target: mIL-2/PSAcs/2x linker/mIL-2Rα (UniProt P04351)
# [8] = target: mIL-2/PSAcs/4x linker/mIL-2Rα (UniProt P04351)
# Sequence of matrix metalloproteinase 2 (MMP2), APMA-activated (R & D Systems) (P08253 110-660): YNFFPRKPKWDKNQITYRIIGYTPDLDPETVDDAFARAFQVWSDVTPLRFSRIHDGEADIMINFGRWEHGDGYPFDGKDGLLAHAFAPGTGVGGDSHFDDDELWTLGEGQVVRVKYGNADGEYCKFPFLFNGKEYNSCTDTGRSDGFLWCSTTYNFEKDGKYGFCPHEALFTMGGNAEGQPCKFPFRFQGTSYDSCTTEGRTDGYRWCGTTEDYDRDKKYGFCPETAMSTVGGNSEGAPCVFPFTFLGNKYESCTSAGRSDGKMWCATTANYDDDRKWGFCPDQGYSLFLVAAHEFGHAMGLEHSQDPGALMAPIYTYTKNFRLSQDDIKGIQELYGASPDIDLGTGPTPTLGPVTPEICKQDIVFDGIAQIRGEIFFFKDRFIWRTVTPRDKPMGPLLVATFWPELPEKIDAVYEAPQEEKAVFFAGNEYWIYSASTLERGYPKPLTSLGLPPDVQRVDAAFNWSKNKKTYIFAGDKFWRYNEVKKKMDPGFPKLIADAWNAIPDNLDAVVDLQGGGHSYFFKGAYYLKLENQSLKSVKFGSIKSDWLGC
substance,measurement,setting,value
"matrix metalloproteinase 9 (MMP9), APMA-activated (R & D Systems)","cleavage by activated MMP9, immunoblot",[1],These cleavage sites were also capable of being cleaved using activated MMP2 and MMP9
same,"cleavage by activated MMP9, immunoblot",[2],These cleavage sites were also capable of being cleaved using activated MMP2 and MMP9
same,"cleavage by activated MMP9, immunoblot",[3],These cleavage sites were also capable of being cleaved using activated MMP2 and MMP9
same,"cleavage by MMP9, anti-IL-2 immunoblot",[4],the fusion protein can be cleaved by MMP2 or MMP9
"matrix metalloproteinase 2 (MMP2), APMA-activated (R & D Systems)","cleavage by activated MMP2, immunoblot",[1],These cleavage sites were also capable of being cleaved using activated MMP2 and MMP9
same,"cleavage by activated MMP2, immunoblot",[2],These cleavage sites were also capable of being cleaved using activated MMP2 and MMP9
same,"cleavage by activated MMP2, immunoblot",[3],These cleavage sites were also capable of being cleaved using activated MMP2 and MMP9
same,"cleavage by MMP2, anti-IL-2 immunoblot",[4],the fusion protein can be cleaved by MMP2 or MMP9
"prostate specific antigen (PSA), purified (Cortex Biochem)","cleavage by PSA, anti-IL-2 immunoblot",[5],the IL-2/Mip1α fusion protein could be cleaved by PSA
same,"cleavage by PSA, anti-human IL-2 immunoblot",[6],the human IL-2/PSAcs/human scFv-2 fusion protein can be cleaved by PSA
same,"cleavage by PSA, anti-IL-2 immunoblot",[7],Immunoblot analyses revealed that the fusion proteins could be cleaved by PSA
same,"cleavage by PSA, anti-IL-2 immunoblot",[8],Immunoblot analyses revealed that the fusion proteins could be cleaved by PSA
